Data published in article PMC7641730, “Structural basis of DNA replication origin recognition by human Orc6 protein binding with DNA”.

T1: HsOrc6-M (Homo sapiens, UniProt Q9Y5N6 95-187)
T1 sequence: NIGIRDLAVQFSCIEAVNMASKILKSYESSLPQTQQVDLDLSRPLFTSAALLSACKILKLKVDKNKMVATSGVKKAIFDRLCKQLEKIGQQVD

T2: HsOrc6 full length (Homo sapiens, UniProt Q9Y5N6 1-252)
T2 sequence: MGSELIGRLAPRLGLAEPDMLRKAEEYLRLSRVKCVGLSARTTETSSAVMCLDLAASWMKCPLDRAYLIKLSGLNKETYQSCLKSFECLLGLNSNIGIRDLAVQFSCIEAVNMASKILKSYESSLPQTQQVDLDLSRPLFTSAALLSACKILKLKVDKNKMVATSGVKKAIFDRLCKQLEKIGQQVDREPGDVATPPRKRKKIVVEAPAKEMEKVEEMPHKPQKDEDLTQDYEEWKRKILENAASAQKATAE

T3: HsOrc6-DBD (Homo sapiens, UniProt Q9Y5N6 95-207)
T3 sequence: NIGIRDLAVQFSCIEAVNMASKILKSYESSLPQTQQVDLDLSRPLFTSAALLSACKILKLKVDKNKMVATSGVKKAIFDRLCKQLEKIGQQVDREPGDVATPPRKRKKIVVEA

B1: 10-bp AT-rich DNA (dsDNA)
DNA 1: TTTAAAAAGT
DNA 2: ACTTTTTAAA
B2: 17-bp AT-rich DNA (dsDNA)
DNA 1: GGCCCTTTTTTTTCTAG
DNA 2: CTAGAAAAAAAAGGGCC

Legend:
HsOrc6-M = molecular target: T1, HsOrc6-M; assay: NMR (2D NOESY of DNA); smaller shifts than with DBD; NMR: 50 mM sodium phosphate pH 6.5, 100 mM NaCl, 2 mM DTT, 298 K; ITC: 50 mM sodium phosphate pH 6.5, 100 mM NaCl, 25 C; EMSA: 25 mM Tris pH 8.0, 60 mM KCl, 5 mM MgCl2, 0.4 mM EDTA, 0.4 mM EGTA, 0.1% NP-40, 10% glycerol, 0.12 mg/ml BSA, room temperature 30 min; settings: protein: recombinant; tags: none (N-terminal His-tag cleaved); blunt
HsOrc6 full length = molecular target: T2, HsOrc6 full length; assay: NMR titration (1H,15N-HSQC); range over residues; NMR: 50 mM sodium phosphate pH 6.5, 100 mM NaCl, 2 mM DTT, 298 K; ITC: 50 mM sodium phosphate pH 6.5, 100 mM NaCl, 25 C; EMSA: 25 mM Tris pH 8.0, 60 mM KCl, 5 mM MgCl2, 0.4 mM EDTA, 0.4 mM EGTA, 0.1% NP-40, 10% glycerol, 0.12 mg/ml BSA, room temperature 30 min; settings: protein: recombinant; tags: none (N-terminal His-tag cleaved with 3C); blunt
HsOrc6-DBD = molecular target: T3, HsOrc6-DBD; assay: NMR titration (1H,15N-HSQC); range over residues: K169 47.1±1.4, A170 57.7±1.1, R200 9.92±2.91, I203 11.3±1.5; NMR: 50 mM sodium phosphate pH 6.5, 100 mM NaCl, 2 mM DTT, 298 K; ITC: 50 mM sodium phosphate pH 6.5, 100 mM NaCl, 25 C; EMSA: 25 mM Tris pH 8.0, 60 mM KCl, 5 mM MgCl2, 0.4 mM EDTA, 0.4 mM EGTA, 0.1% NP-40, 10% glycerol, 0.12 mg/ml BSA, room temperature 30 min; settings: protein: recombinant; tags: none (N-terminal His-tag cleaved); blunt

Binder | binding result (HsOrc6-M) | Kd (HsOrc6 full length) [µM] | Kd (HsOrc6-DBD) [µM]
B1 | binds | – | –
B2 | – | 44.5 | 23.9
